Data published in publication PMC4157861.

Biological target: FHA domain of human kanadaptin (residues 149-276) (human) (UniProt Q9BWU0)
Test: crystal structure; crystals from 1.6 M ammonium sulfate, 0.1 M citric acid pH 5.0, 277 K; space group P2(1)2(1)2(1); tag removed; one homodimer in the asymmetric unit

Substance “FHA domain of human kanadaptin (residues 149-276) (from UniProt Q9BWU0 149-276) (domain or fragment)” has a stoichiometry N of 2.
